Measured values published in patent US20230272086A1 (CHIA TAI TIANQING PHARMACEUTICAL GROUP, published 2023).

T1: cynomolgus monkey ST2 antigen (Cyno-ST2-his, Sino biological, 90915-C08H) (cynomolgus monkey, UniProt Q01638 19-328 (human entry))
T1 construct: Bought protein; not shown: his tag
T1 chain: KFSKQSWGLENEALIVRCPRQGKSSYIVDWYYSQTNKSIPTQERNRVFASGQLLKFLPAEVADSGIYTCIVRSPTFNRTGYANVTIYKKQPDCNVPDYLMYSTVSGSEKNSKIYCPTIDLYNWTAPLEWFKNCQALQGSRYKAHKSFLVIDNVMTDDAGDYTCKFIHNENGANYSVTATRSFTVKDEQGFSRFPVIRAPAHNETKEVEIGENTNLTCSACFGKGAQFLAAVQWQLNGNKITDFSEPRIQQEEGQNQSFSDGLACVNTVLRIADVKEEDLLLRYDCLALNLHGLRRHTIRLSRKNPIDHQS


Tests used:
[1] = target: T1, cynomolgus monkey ST2 antigen …; test: ELISA, plate coated with Cyno-ST2-his
Description: ST2 binding screening and analysis of antibodies were performed by ELISA using hST2-ECD-mFc (for assays of chimeric and humanized antibodies), hST2-ECD-hFc protein (for assays of hybridoma antibodies) and Cyno-ST2-his (Sino biological, 90915-C08H) as antigens. A high-adsorption 96-well plate (Costar, 9018) was coated with 2 µg/mL hST2-ECD-mFc or Cyno-ST2-his antigen at 100 µL/well and incubated overnight at 4° C. After the antigen not adsorbed was well washed off, the non-specific binding sites were blocked with a blocking buffer (PBS containing 2% bovine serum albumin). After the plate was washed three times with a washing buffer (PBS containing 0.05% (v/v) Tween 20), the anti-ST2 antibodies (serially diluted 3-fold from an initial concentration of 10 nM to 8 concentrations: 3.333 nM, 1.111 nM, 0.370 nM, 0.123 nM, 0.041 nM, 0.014 nM, 0.005 nM, and 0.002 nM) were added at 100 µL/well, and the plate was incubated at room temperature for 1 h. After the plate was washed with the washing buffer, a horseradish peroxidase (HRP)-conjugated secondary antibody was added, and the plate was incubated for another 60 min. After the plate was washed with the washing buffer, the substrate TMB solution (Thermo, 00-4201-56) was added at 100 µL/well, and the plate was incubated at room temperature for 2 min. A stop solution (2 N H₂SO₄) was added at 100 µL/well to terminate the reactions. Colorimetric signals were generated and read at 450 nm using a microplate reader (PE, Envision). The data were analyzed using GraphPad Prism5, and the EC₅₀ values were calculated.

[2] = target: recombinant protein containing hST2 extracellular domain with human antibody heavy chain Fc tag (hST2-ECD-hFc) (human); test: competition ELISA, coated hST2-ECD-hFc, antibody then biotin-labeled hIL33 Avitag (competitor)
Description: Whether the anti-ST2 antibodies were able to block the binding of hIL33 to hST2 was determined based on ELISA. A high-adsorption 96-well plate was coated with 2 µg/mL hST2-ECD-hFc at 100 µL/well and incubated overnight at 4° C. After the antigen not adsorbed was well washed off, the non-specific binding sites were blocked with a blocking buffer (PBST containing 1% bovine serum albumin). After the plate was washed three times with a washing buffer (PBST, PBS containing 0.05% (v/v) Tween 20), the anti-ST2 antibodies (serially diluted 2-fold from an initial concentration of 66.67 nM to 8 concentrations) were added at 100 µL/well, and the plate was incubated at 37° C. for 1 h After the plate was washed 3 times with the washing buffer, 100 µL of biotin-labeled hIL33 Avitag (with a concentration of 0.1 µg/mL) was added to each well, and the plate was incubated at 37° C. for 1 h. After the plate was washed 3 times with the washing buffer, a 1:1000 diluted secondary antibody Avidin HRP (Jackson immunoresearch, 016-030-084) was added at 100 µL/well, and the plate was incubated at room temperature for 1 h After the plate was washed with the washing buffer, the substrate TMB solution (Thermo, 00-4201-56) was added at 100 µL/well, and the plate was incubated at room temperature for 3 min. 50 µL of a stop solution (2 N H₂SO₄) was added to terminate the reactions. Colorimetric signals were generated and read at 450 nm using a plate reader (PE, Envision). The data were analyzed using GraphPad Prism5, and the IC₅₀ values were calculated.

[3] = target: T1, cynomolgus monkey ST2 antigen …; test: SPR (Biacore T200), Cyno-ST2-his captured by anti-his antibody on CM5, antibody as analyte, 1:1 model
Description: The reaction signals were detected in real time using a Biacore instrument (Cytiva, BiacoreT200), and then an association-dissociation curve was obtained. After the completion of dissociation in each cycle, the biochip was regenerated with a regeneration solution for the next capture; the procedure was repeated until the affinity of the different antibodies for ST2 was determined. The acquired data were finally analyzed using the GE BIAevaluation software with a 1:1 (Langmuir) binding model to determine the association rate constants ka (kon) and the dissociation rate constants kd (koff), and the dissociation constants KD were given by KD = kd/ka. The determined affinity of the anti-ST2 antibody for human ST2 antigen (hST2-ECD-mFc), cynomolgus monkey ST2 antigen (Cyno-ST2-his, Sino biological, 90915-C08H) and the determined affinity of the anti-ST2 chimeric antibodies for ST2 were shown in Table 5.

Row | Binder | EC50 [1] [nM] | IC50 [2] [nM] | Kd [3] [nM]
1 | Chimeric 31C8 (antibody, human IgG2, kappa, V domains shown, also called xi31C8) VH: QVQLQQSGPELVRPGASVTLSCKASGYIFIDSEMHWVKQTPVHGLEWIGAIDPETGDTVYNQKFKGKATLTADKSSSTASMELSSLTSEDSAVYYCTGSTTDYYFAYWGQGTTLTVSS VL: DIVMTQAAFSNPVTLGTSASISCRSSKSLLHSNGIIYLYWYLQKPGQSPQLLIYQMSNLASGVPDRFSSSGSGTDFTLRISRVEAEDVGVYYCAQNLELPFTFGSGTKLEIKR | 0.163 | 2.5 | 0.323
2 | Chimeric 8F4 (antibody, human IgG2, kappa, V domains shown, also called xi8F4) VH: QVQLQQSGAELVRPGASVTLSCKASGHIFTDYEMQWVKQTPVHGLEWIGAFDPETGDTAYNQKFKGKATLTADKSSSTAYMELSSLTSEDSAVYYCSGSTTDYYFAYWGQGTSLTVSS VL: DVVMTQTAFSNPVTLGTSASISCRSSKSLLHSNGIIYLYWYLQKPGQSPQLLIYQMSNLASGVPDRFSSSGSGTDFTLRISRVEAEDVGVYYCAQNLELPFTFGSGTKLEIKR | 0.164 | 2.79 | 4.04
3 | Chimeric 26A1 (antibody, human IgG2, kappa, V domains shown, also called xi26A1) VH: QVQLQQSGAELVRPGASVTLSCKASDYIFTDSEIHWVKQTLVHGLEWIGAIDPETGDTAYNQKFKGKATLTADKSSSTAYMELSSLTSEGSAVYYCSGSTTDCYFAYWGQGTTLTVSS VL: DIVMTQAAFSNPVTLGTSASISCRSSKSLLHSNGIIYLYWYLQKPGQSPQLLIYQMSNLASGVPDRFSSSGSGTDFTLRISRVEAEDVGVYYCAQNLELPFTFGSGTKLEIKR | 0.946 | 2.53 | 69.8
4 | Chimeric 3C6 (antibody, human IgG2, kappa, V domains shown, also called xi3C6) VH: QVQLQQSGAEVVRPGASVTLSCKASDYTITDYEMHWVKQTPVHGLEWIGAIDPETGDTAYSQNFKGKATLTADESSSTAYMELSSLTSEDSAVYYCSRSATDYYFASWGQGTTLTVSS VL: DIVMTQAAISNPVTLGTSASMSCRSSKSLLHSNGITYLYWYLQKPGHSPQLLIYQMSNLASGVPDRFSSSGSGTDFTLKISRVEAEDVGVYYCAQNLELPFTFGSGTKLEIKR | 0.43 | 2.52 | 152
5 | Chimeric 17E2 (antibody, human IgG2, kappa, V domains shown, also called xi17E2) VH: QVQLQQSGAELVRPGASVTLSCKASGYTFTDYEMHWVKQTPVLGLEWIGAIDPETGDTAYNQKFKGKATLTADKSSSTAYMELSSLASEDSAVYYCIRVDSNYDYFDYWGQDTTLTVSS VL: DIVLTQSPPILSASPGEKVTMTCRASSSVSYMHWYQQKPGSSPKPWIYDTSNLASGVPARFSGSGSGTSYSLTISRVEAEDAATYYCQQWSSNPLTFGAGTKLELKR | 0.22 | 3.35 | 0.0257

More lines, in order of falling EC50 [1], values ahead:

Row | EC50 [1] [nM] | IC50 [2] [nM] | Kd [3] [nM] | Binder
6 | 0.191 | 2.9 | 0.124 | Chimeric 7D1 (antibody, human IgG2, kappa, V domains shown, also called xi7D1) VH: QVQLQQSGAELVRPGASVTLSCKASGYTFTDYEMHWVKQTPVHGLDWIGTIDPETGDTAYNQKFKGRATLTADKSSSTAYMELSSLTSEDSAVYYCTRYSYTNSPYGMDYWGQGTSVTVSS VL: DVVMTQTPKFLLVSAGDRVTITCKASQSVSNDVAWYQQKPGQSPKLLIYYASNRYTGVPDRFTGSGYGTDFTFTINTVQAEDLAVYFCQQDYSSPYTFGGGTKLEIKR
7 | 0.129 | 2.88 | 0.049 | RG6149 (antibody Ab2 in CN104334582, prepared in-house) (antibody, human IgG2, kappa, V domains shown, Control anti-ST2 antibody) VH: EVQLVQSGAEVKKPGESLKISCKGSGYSFTNYWIGWVRQMPGKGLEWMGIIYPGNSDTRFSPSFQGQVTISADKSITTAYLQWSSLKASDTAMYYCARHGTSSDYYGLDVWGQGTTVTVSS VL: not shown
